B1: KLHL13 (parent)
chain: TGEFLKLPFERLAFVLSSNSLKHC

Variants of: B1
Experiment: protein stability index of a GFP-peptide fusion (GPS, HEK-293T) (PSI 1-6); higher = more stable
Details: c terminus: a fixed tail appended
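Also: lentivirally expressed fusions sorted by FACS into six bins by GFP to DsRed ratio, PSI derived from sequencing read proportions per bin multiplied by bin number.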

Going from TGEFLKLPFERLAFVCSSNSLKHC [L16C] to TGEFLKLPFERLAFVDSSNSLKHC [L16D], the protein stability index rises from 1.39 to 2.37.

Compared with TGEFLKLPFERLAFVISSNSLKHC [L16I], TGEFLKLPFERLAFVYSSNSLKHC [L16Y] is lower in protein stability index: 2.89 for the first, 1.93 for the second.

Going from TGEFLKLPFERLAFVQSSNSLKHC [L16Q] to TGEFLKLPFERLAFVKSSNSLKHC [L16K], the protein stability index rises from 2.24 to 2.65.

Going from TGEFLKLPFERLAFVHSSNSLKHC [L16H] to TGEFLKLPFERLAFVPSSNSLKHC [L16P], the protein stability index rises from 1.89 to 2.33.

Going from TGEFLKLPFERLAFVMSSNSLKHC [L16M] to TGEFLKLPFERLAFVRSSNSLKHC [L16R], the protein stability index falls from 2.25 to 2.21.

Going from TGEFLKLPFERLAFVVSSNSLKHC [L16V] to TGEFLKLPFERLAFVWSSNSLKHC [L16W], the protein stability index falls from 3.18 to 2.23.

Compared with TGEFLKLPFERLAFVSSSNSLKHC [L16S], TGEFLKLPFERLAFVTSSNSLKHC [L16T] is lower in protein stability index: 2.68 for the first, 1.75 for the second.

Going from TGEFLKLPFERLAFVGSSNSLKHC [L16G] to TGEFLKLPFERLAFVASSNSLKHC [L16A], the protein stability index falls from 2.23 to 1.74.

First: TGEFLKLPFERLAFVESSNSLKHC [L16E]
Second: TGEFLKLPFERLAFVNSSNSLKHC [L16N]
The protein stability index of the first is lower: 2.42 for the first, 2.93 for the second.

First: TGEFLKLPFERLNFVLSSNSLKHC [A13N]
Second: TGEFLKLPFERLQFVLSSNSLKHC [A13Q]
The protein stability index of the first is lower: 1.93 for the first, 2.26 for the second.

Going from TGEFLKLPFERLCFVLSSNSLKHC [A13C] to TGEFLKLPFERLIFVLSSNSLKHC [A13I], the protein stability index rises from 2.41 to 3.35.

First: TGEFLKLPFERLRFVLSSNSLKHC [A13R]
Second: TGEFLKLPFERLDFVLSSNSLKHC [A13D]
The protein stability index of the first is lower: 1.85 for the first, 2.08 for the second.

First: TGEFLKLPFERLMFVLSSNSLKHC [A13M]
Second: TGEFLKLPFERLTFVLSSNSLKHC [A13T]
The protein stability index of the first is higher: 3.12 for the first, 2.76 for the second.

Compared with TGEFLKLPFERLPFVLSSNSLKHC [A13P], TGEFLKLPFERLEFVLSSNSLKHC [A13E] is lower in protein stability index: 3.04 for the first, 1.71 for the second.

Compared with TGEFLKLPFERLKFVLSSNSLKHC [A13K], TGEFLKLPFERLYFVLSSNSLKHC [A13Y] is higher in protein stability index: 1.98 for the first, 3.93 for the second.

First: TGEFLKLPFERLGFVLSSNSLKHC [A13G]
Second: TGEFLKLPFERLFFVLSSNSLKHC [A13F]
The protein stability index of the first is lower: 1.6 for the first, 1.67 for the second.

Compared with TGEFLKLPFERLSFVLSSNSLKHC [A13S], TGEFLKLPFERLHFVLSSNSLKHC [A13H] is lower in protein stability index: 1.99 for the first, 1.72 for the second.

Compared with TGEFLKLPFERLAFVLMSNSLKHC [S17M], TGEFLKLPFERLAFVLPSNSLKHC [S17P] is lower in protein stability index: 2.2 for the first, 1.7 for the second.

Compared with TGEFLKLPFERLAFVLNSNSLKHC [S17N], TGEFLKLPFERLAFVLYSNSLKHC [S17Y] is higher in protein stability index: 2.33 for the first, 2.46 for the second.

Going from TGEFLKLPFERLAFVLISNSLKHC [S17I] to TGEFLKLPFERLAFVLRSNSLKHC [S17R], the protein stability index rises from 1.71 to 2.82.

Compared with TGEFLKLPFERLAFVLASNSLKHC [S17A], TGEFLKLPFERLAFVLCSNSLKHC [S17C] is higher in protein stability index: 3.79 for the first, 5.02 for the second.

First: TGEFLKLPFERLAFVLQSNSLKHC [S17Q]
Second: TGEFLKLPFERLAFVLESNSLKHC [S17E]
The protein stability index of the first is lower: 1.72 for the first, 1.86 for the second.

Going from TGEFLKLPFERLAFVLDSNSLKHC [S17D] to TGEFLKLPFERLAFVLLSNSLKHC [S17L], the protein stability index rises from 1.06 to 2.06.

First: TGEFLKLPFERLAFVLKSNSLKHC [S17K]
Second: TGEFLKLPFERLAFVLWSNSLKHC [S17W]
The protein stability index of the first is lower: 1.05 for the first, 3.66 for the second.

Compared with TGEFLKLPFERLAFVLSSNSPKHC [L21P], TGEFLKLPFERLAFVLSSNSIKHC [L21I] is higher in protein stability index: 2.39 for the first, 3.4 for the second.

Compared with TGEFLKLPFERLAFVLSSNSEKHC [L21E], TGEFLKLPFERLAFVLSSNSHKHC [L21H] is lower in protein stability index: 2.45 for the first, 2.14 for the second.

Compared with TGEFLKLPFERLAFVLSSNSDKHC [L21D], TGEFLKLPFERLAFVLSSNSAKHC [L21A] is higher in protein stability index: 2.79 for the first, 2.92 for the second.

Compared with TGEFLKLPFERLAFVLSSNSGKHC [L21G], TGEFLKLPFERLAFVLSSNSMKHC [L21M] is higher in protein stability index: 1.75 for the first, 3.88 for the second.

First: TGEFLKLPFERLAFVLSSNSKKHC [L21K]
Second: TGEFLKLPFERLAFVLSSNSNKHC [L21N]
The protein stability index of the first is lower: 1.26 for the first, 1.88 for the second.

Going from TGEFLKLPFERLAFVLSSNSCKHC [L21C] to TGEFLKLPFERLAFVLSSNSFKHC [L21F], the protein stability index falls from 3.31 to 1.42.

Compared with TGEFLKLPFERLAFVLSSNCLKHC [S20C], TGEFLKLPFERLAFVLSSNDLKHC [S20D] is lower in protein stability index: 3.52 for the first, 2.29 for the second.

Going from TGEFLKLPFERLAFVLSSNLLKHC [S20L] to TGEFLKLPFERLAFVLSSNELKHC [S20E], the protein stability index falls from 3.05 to 2.34.

Compared with TGEFLKLPFERLAFVLSSNFLKHC [S20F], TGEFLKLPFERLAFVLSSNKLKHC [S20K] is lower in protein stability index: 2.55 for the first, 2.43 for the second.

Going from TGEFLKLPFERLAFVLSSNPLKHC [S20P] to TGEFLKLPFERLAFVLSSNTLKHC [S20T], the protein stability index rises from 2.4 to 2.98.

Going from TGEFLKLPFERLAFVLSSNHLKHC [S20H] to TGEFLKLPFERLAFVLSSNMLKHC [S20M], the protein stability index rises from 1.49 to 3.42.

Going from TGEFLKLPFERLAFVLSSNRLKHC [S20R] to TGEFLKLPFERLAFVLSSNNLKHC [S20N], the protein stability index rises from 1.87 to 3.25.

First: TGEFLKLPFERLAFVLSSNILKHC [S20I]
Second: TGEFLKLPFERLAFVLSSNGLKHC [S20G]
The protein stability index of the first is higher: 2.7 for the first, 2.59 for the second.

Compared with TGEFLKLPFERLAFFLSSNSLKHC [V15F], TGEFLKLPFERLAFALSSNSLKHC [V15A] is lower in protein stability index: 2.39 for the first, 1.84 for the second.

First: TGEFLKLPFERLAFQLSSNSLKHC [V15Q]
Second: TGEFLKLPFERLAFSLSSNSLKHC [V15S]
The protein stability index of the first is lower: 2.31 for the first, 2.32 for the second.

Going from TGEFLKLPFERLAFGLSSNSLKHC [V15G] to TGEFLKLPFERLAFDLSSNSLKHC [V15D], the protein stability index falls from 3.31 to 1.82.

Going from TGEFLKLPFERLAFELSSNSLKHC [V15E] to TGEFLKLPFERLAFYLSSNSLKHC [V15Y], the protein stability index falls from 1.78 to 1.06.

Going from TGEFLKLPFERLAFNLSSNSLKHC [V15N] to TGEFLKLPFERLAFHLSSNSLKHC [V15H], the protein stability index rises from 1.95 to 2.27.

First: TGEFLKLPFERLAFTLSSNSLKHC [V15T]
Second: TGEFLKLPFERLAFWLSSNSLKHC [V15W]
The protein stability index of the first is lower: 1.59 for the first, 3.3 for the second.

First: TGEFLKLPFERLAFMLSSNSLKHC [V15M]
Second: TGEFLKLPFERLAFRLSSNSLKHC [V15R]
The protein stability index of the first is higher: 1.96 for the first, 1.53 for the second.

Compared with TGEFLKLPFERLAFILSSNSLKHC [V15I], TGEFLKLPFERLAFKLSSNSLKHC [V15K] is lower in protein stability index: 2 for the first, 1.81 for the second.

Compared with TGEFLKLPFERLAFPLSSNSLKHC [V15P], TGEFLKLPFERLAFCLSSNSLKHC [V15C] is lower in protein stability index: 2.53 for the first, 2.21 for the second.

Compared with TGEFLKLPFERLAFLLSSNSLKHC [V15L], TGEFLKLPFEYLAFVLSSNSLKHC [R11Y] is higher in protein stability index: 3.05 for the first, 4.43 for the second.

— the supplement of paper PMC10567573
